assay: soluble on expression in E. coli; label from the status in PepcDB or PDB records

Sequence | soluble on expression in E. coli
MSKRRYLTGKEVQAMMQAVCYGATGARDYCLILLAYRHGMRISELLDLHYQDLDLNEGRINIRRLKNGFSTVHPLRFDEREAVERWTQERANWKGADRTDAIFISRRGSRLSRQQAYRIIRDAGIEAGTVTQTHPHMLRHACGYELAERGADTRLIQDYLGHRNIRHTVRYTASNAARFAGLWERNNLINEKLKREEV | not soluble
MSKSIYEQYLQAKADNPGKYARDLATLMGISEAELTHSRVSHDAKRLKGDARALLAALEAVGEVKAITRNTYAVHEQMGRYENQHLNGHAGLILNPRNLDLRLFLNQWASAFTLTEETRHGVRHSIQFFDHQGDALHKVYVTEQTDMPAWEALLAQFITTENPELQLEPLSAPEVTEPTATDEAVDAEWRAMTDVHQFFQLLKRNNLTRQQAFRAVGNDLAYQVDNSSLTQLLNIAQQEQNEIMIFVGNRGCVQIFTGMIEKVTPHQDWINVFNQRFTLHLIETTIAESWITRKPTKDGFVTSLELFAADGTQIAQLYGQRTEGQPEQTQWRDQIARLNNKDIAA | soluble
MSKSTAEIRQAFLDFFHSKGHQVVASSSLVPHNDPTLLFTNAGMNQFKDVFLGLDKRNYSRATTSQRCVRAGGKHNDLENVGYTARHHTFFEMLGNFSFGDYFKHDAIQFAWELLTSEKWFALPKERLWVTVYESDDEAYEIWEKEVGIPRERIIRIGDNKGAPYASDNFWQMGDTGPCGPCTEIFYDHGDHIWGGPPGSPEEDGDRYIEIWNIVFMQFNRQADGTMEPLPKPSVDTGMGLERIAAVLQHVNSNYDIDLFRTLIQAVAKVTGATDLSNKSLRVIADHIRSCAFLIADGVMPSNENRGYVLRRIIRRAVRHGNMLGAKETFFYKLVGPLIDVMGSAGEDLKRQQAQVEQVLKTEEEQFARTLERGLALLDEELAKLSGDTLDGETAFRLYDTYGFPVDLTADVCRERNIKVDEAGFEAAMEEQRRRAREASGFGADYNAMIRVDSASEFKGYDHLELNGKVTALFVDGKAVDAINAGQEAVVVLDQTPFYAESGGQVGDKGELKGANFSFAVEDTQKYGQAIGHIGKLAAGSLKVGDAVQADVDEARRARIRLNHSATHLMHAALRQVLGTHVSQKGSLVNDKVLRFDFSHNEAMKPEEIRAVEDLVNTQIRRNLPIETNIMDLEAAKAKGAMALFGEKYDERVRVLSMGDFSTELCGGTHASRTGDIGLFRIISESGTAAGVRRIEAVTGEGAIATVHADSDRLSEVAHLLKGDSNNLADKVRSVLERTRQLEKELQQLKEQAAAQESANLSSKAIDVNGVKLLVSELSGVEPKMLRTMVDDLKNQLGSTIIVLATVVEGKVSLIAGVSKDVTDRVKAGELIGMVAQQVGGKGGGRPDMAQAGGTDAAALPAALASVKGWVSAKLQ | soluble
MSKVNQQDIDKLIELVGGRGNIATVSHCITRLRFVLNDPAIARPKEIEQLRMVKGCFTNAGQFQVVIGTEVGDYYKALLATTGQTSADKEQVKQA | not soluble
MSLAAGRSSTSGLVAPDIENPFFPEIIRAFQESTNLSGLEAVGMNTAYDAQRTRGVIERPVSLQVPGAAFFTTQVDSGIKNALAARNIAGVYMDYGDAAPGISSIAVNYPEGMLQAITHLRDLGHRRIGLVGGPAHGAGAQRRKAAFLEGLKTNGIEGRATESDFSVQGGYFSCSKLLASYDCTAVIAANDLMAIGALHLAYDRQIAVPAQLSIIGFDDITFAKFTQPALTTVAVPRAEIGRVAFECRLALMKDPGAAGESHEIPTHLVVRQTTASVGEGHHHHHH | not soluble
MSLAAGYGVPLEQGEHRLGSSRVVVETAGDGLVRYRREVDGGGSVELLFDGTVDLQPVPMYPIFKPLYVTRFILLRIEPRIVVSPGSERTFYTLIPVDTAIYAFPGDEPTIVDVIPMDDKPSLVLYGPPESGVVARLAISSVSPRPEEPSLGRALARIAVKNISGTPVTLSRILLDSAPLKLYFERGTWRAYTQELAVEVERYRGVVMYRQPFREGTMPISDPPEVRPPRFFQRTDMMWGVEGHHHHHH | not soluble
MSLAARRALHFVFKVGNRFQTARFYRDVLGMKVLRHEEFEEGCKAACNGPYDGKWSKTMVGFGPEDDHFVAELTYNYGVGDYKLGNDFMGITLASSQAVSNARKLEWPLTEVAEGVFETEAPGGYKFYLQNRSLPQSDPVLKVTLAVSDLQKSLNYWCNLLGMKIYEKDEEKQRALLGYADNQCKLELQGVKGGVDHAAAFGRIAFSCPQKELPDLEDLMKRENQKILTPLVSLDTPGKATVQVVILADPDGHEICFVGDEAFREGHHHHHH | soluble
MSLAAVPAPDPGPDAGAIWHYGDPLGEQRAGQADAVLVDRSHRAVLTLDGGDRQTWLHSISTQHVSDLPEGASTQNLSLDGQGRVEDHWIQTELGGTTYLDTEPWRGEPLLAYLRKMVFWSMVTPRAADMAVLSLLGPRLAEERVLDALGLDVLPAEWLAVPLAGGGIVRRMPDGLAGQIELDVVVKRGDRADWQRRLTQAGVRPAGIWAYEAHRVAHRVPARRPRLGVDTDERTIPHEVGWIGGPGAGAVHLNKGCYRGQETVARVHNLGRPPRMLVLLHLDESVQRPSTGDAVLAGGRTVGRLGTVVEHVELGPVALALLKRGLPGDTALVTGPEAEVAAVIDVDSLPPADDVGAGRRAVERLRGGIREGHHHHHH | soluble
MSLAAVQVVGSWPSVQPREAPREAIPERGNGFRLLSARLCALRPDDSSSARTEIHLLFDQLISENYSEGSGVAPEDVSALLVQACRLVPLNQNHLVSKVSQLIHHLLNRLQVIVDEQHLDFLLAYTISAIHQCSSWTHREILQALAALVYCNGSKCQKYLPELLGNTGLLMKLSDLAQSDPEVRRAAVHCMANLCLSVPGQPYLEEPYQNVCFQAFLTILQSPKSSDMDDITFCMLLQNALKGIQSLLNGGRMKLTQTDELGALLAVLKKFMFHGLPGLNIEMPTVLYPTPLPQYDGRTPIKEGHHHHHH | not soluble
MSLADLQKNFQTSFRDAMASCAAGVHVITTDGAAGRYGITMTAVAPVTDEPPTVMLCINRSARIIPILSENGSLCINTLADEHQDVAEHFAGLTGLSPEERFAYHIWHRGKTGQLEIEGALAHLHGHIVGKHEIGTHFVFYVRLDEIKNCGCKRPALLYFRRQFRFLDEGGSHHHHHH | soluble
MSLADLTSLSIEHLRSPRLYTHRLILRPWLVQDRARFAELNADPLVMEFFPSCLDRAQSDALLRRIDAHFAEHGFGWWALQVKGGDPFIGYVGLEVVDFDAPFVPAVAIGWRLAAEHWAEGFAHEAAEAALSYAFDTLGLDQVVAFTVPANENSLGLMERLGMHRDPTDDFEHPDLPPGHRLRHHVLYRLTREDWLRREGGSHHHHHH | soluble
MSLADPDGGERSRRAARAASLSSSSRPTSVSAKQPCRVKFICRVLRPVVQGFLTSLGYRAAIGRAPSARQLRDYLLVPEVTRLHAENYGFYGRRKMHALMRRQGWVIGRDQTERLMRLAGVRGVRKSKRVLTTHSDKTTVLPADLVNRRFTAPAPRRLWVCDVTYVATWSGFAYVAFVTDVYSRRIVGWNVAATLRSEILPMQALDMAAWGAGGDLTSLIHHADHGSNSEGHHHHHH | soluble
MSLADSSYYDEDYRPQYHFTPEANWMNDPNGMVYYAGEYHLFYQYHPYGLQWGPMHWGHAVSKDLVTWEHLPVALYPDEKGTIFSGSAVVDKNNTSGFQTGKEKPLVAIYTQDREGHQVQSIAYSNDKGRTWTKYAGNPVIPNPGKKDFRDPKVFWYEKEKKWVMVLAAGDRILIYTSKNLKQWTYASEFGQDQGSHGGVWECPDLFELPVDGNPNQKKWVMQVSVGNGAVSGGSGMQYFVGDFDGTHFKNENPPNKVLWTDYGRDFYAAVSWSDIPSTDSRRLWLGWMSNWQYANDVPTSPWRSATSIPRELKLKAFTEGVRVVQTPVKELETIRGTSKKWKNLTISPASHNVLAGQSGDAYEINAEFKVSPGSAAEFGFKVRTGENQFTKVGYDRRNAKLFVDRSESGNDTFNPAFNTGKETAPLKPVNGKVKLRIFVDRSSVEVFGNDGKQVITDIILPDRSSKGLELYAANGGVKVKSLTIHPLKKVWGTTPFMSNMTGWTTVNGTWADTIEGKQGRSDGDSFILSSASGSDFTYESDITIKDGNGRGAGALMFRSDKDAKNGYLANVDAKHDLVKFFKFENGAASVIAEYKTPIDVNKKYHLKTEAEGDRFKIYLDDRLVIDAHDSVFSEGQFGLNVWDATAVFQNVTKESEGHHHHHH | soluble
MSLADWQEITGGITAPKGYRAAGITAGLKPSGLPDLALIVSDVEAIASGVFTTSQVKAACVDYCRQRLQAKQSARAILCNAGQANAATGSQGIKDAEESAELLAKELNISPELILLASTGVIGQRIKMDALRNGIPKLIASLTDTGSDAAAGAIITTDLVTKSIALETTIGDRPVRIGGIAKGSGMIHPNMATMLAFVTCDAAVSSHLWQQMLTRAADRSFNSITVDGDTSTNDSLIALANGQSRTPAITEVGAESEKLEAMLTAVCQHLAKAIARDGEGATCLIEVQVTGAHDEQAARQIAKTIAGSSLVKSAIFGRDPNWGRIAAAAGRAGVPFEQENLQIQLGDFLLLDNGQPLPFDRAAASAYLKQAATGAYLQQDTVLISVKVGNGHGTGKAWGCDLSYDYVKINAEYTTEGHHHHHH | soluble
MSLAEINKNEVDIVIGALNADLTQFLTSWRPFFSGFHLIVVKDPELKEELNIPEGFDVDVYSKTDMEKVVGASNSTMFSGYSCRYFGYLVSKKKYIVSIDDDCVPAKDPKGFLVDAVTQHVINLENPATPLFFNTLYDPYCEGADFVRGYPFSLRSGVPCAASCGLWLNLADLDAPTQALKTEKRNTAYVDAVMTVPAKAMLPISGINIAFNRELVGPALVPALRLAGEGKVRWETLEDVWCGMCLKHISDHLGYGVKTGLPYVWRNERGDAVESLRKKWEGMKLMEKSVPFFDSLKLPETALKVEDCVIELAKAVKEQLGSDDPAFTQAADAMVKWVQLWNSVNSSA | soluble
MSLAEKLPFRVKKHQSKLLKKLGETDMQLQYNKVDNLKIVVSKINGMIIHPGETFSFCKTVGLPTRKKGYKEGMELSFGKPRAGVGGGICQSTNLLHWLALHSPLTITERHHHSIDPFPDNGRVLPWASGAAVFYNYIDFQLTNDTSWAFQINLWLTDKLLEGEIRVNEELDFAYHVKERNHRFIKKEGAYFRTNEIWRHKIAKFRSGALLEEELMYKNYGKVMYVPKTYQEGHHHHHH | soluble
MSLAEQATKSVLFVCLGNICRSPIAEAVFRKLVTDQNISENWVIDSGAVSDWNVGRSPDPRAVSCLRNHGIHTAHKARQITKEDFATFDYILCMDESNLRDLNRKSNQVKTCKAKIELLGSYDPQKQLIIEDPYYGNDSDFETVYQQCVRCCRAFLEKAHEGHHHHHH | soluble
MSLAEQLAIADLQVDIKQIPLKQPFVTALHRVDAVNAVRVTVRLANGVTGVGTCTPNEKVTGDSLSSARAVIEETIKPLVLGKNLTDWKELLNTVKTSIVHNAPAKAAVEIALYNTRANLFGLTLSQLLGGKGGSVETDYTISIGKAEQMIADAQKMVDQGFKTLKLKLGAGHLKRDIKLVEDLAYAAGPMVHLRLDMNQACDVRQTMQAAEYWHKQGLLIDFIEQPVPAWDLDSMAYLTRHSPYPIMADESVESYEDAQRVLAKNACDYINIKLMKTGGLSEAQKINDLAESRGVPTMVGSMIESIESLAAACAFYRANPNTIFADLDAIFMVDQDPDLNSYAECVGDNIVVREGHHHHHH | soluble
MSLAFDETRLPDDVERGAQGGPRFKTTVITLSSGFERRNSDWAQTRGEWDVGYGMQDATDLEDVIAFFYARNGRARGFRFKDWTDYVLSRQAIGTTDGSNATFQLFKRYTSGSTSFDRILSKIVTATTQVWVNNVEAPEGGASTSFAIDTTTGMITLGSSLAAQSGTTVEAACQFDVPVRFGSDALDITAEWADAVGAPNIPIVEIRVEGHHHHHH | soluble

Source: the DeepSol protein solubility set
